This is an account of results in US20080261906.

For data set [1], the target named is Rab1 GTPase (GTP-loaded, purified).
Data set [2] concerns the target other Rabs and Arfs of the panel (27 mammalian Rabs and several different ARFs were tested).

B1: TBC1D20 with a 6xHIS N-terminal tag (bacterially expressed, pDEST-17) (protein)
chain: MALRSAQGDGPTSGHWDGGAEKADFNAKRKKKVAEIHQALNSDPTDVAALRRMAISEGGLLTDEIRRKVWPKLLNVNANDPPPISGKNLRQMSKDYQQVLLDVRRSLRRFPPGMPEEQREGLQEELIDIILLILERNPQLHYYQGYHDIVVTFLLVVGERLATSLVEKLSTHHLRDFMDPTMDNTKHILNYLMPIIDQVNPELHDFMQSAEVGTIFALSWLITWFGHVLSDFRHVVRLYDFFLACHPLMPIYFAAVIVLYREQEVLDCDCDMASVHHLLSQIPQDLPYETLISRAGDLFVQFPPSELAREAAAQQQAERTAASTFKDFELASAQQRPDMVLRQRFRGLLRPEDRTKDVLTKPRTNRFVKLAVMGLTVALGAAALAVVKSALEWAPKFQLQLFP
Take B1: the “catalytic efficiency (kcat/Km) of GAP-accelerated GTP hydrolysis” value in data set [1] is recorded as “Activation of Rab1GTP hydrolysis by TBC1D20 has an apparent catalytic efficiency (kcat/Km) of 360 M^-1s^-1”. The “catalytic efficiency relative to the intrinsic rate constant for GTP hydrolysis” value in data set [2] was “Note that only Rab1 displays significant activation by TBC1D20”.

B2: mutant TBC1D20 (R66A, R105A), 6xHIS N-terminal tag, bacterially expressed (protein)
chain: MALRSAQGDGPTSGHWDGGAEKADFNAKRKKKVAEIHQALNSDPTDVAALRRMAISEGGLLTDEIARKVWPKLLNVNANDPPPISGKNLRQMSKDYQQVLLDVRASLRRFPPGMPEEQREGLQEELIDIILLILERNPQLHYYQGYHDIVVTFLLVVGERLATSLVEKLSTHHLRDFMDPTMDNTKHILNYLMPIIDQVNPELHDFMQSAEVGTIFALSWLITWFGHVLSDFRHVVRLYDFFLACHPLMPIYFAAVIVLYREQEVLDCDCDMASVHHLLSQIPQDLPYETLISRAGDLFVQFPPSELAREAAAQQQAERTAASTFKDFELASAQQRPDMVLRQRFRGLLRPEDRTKDVLTKPRTNRFVKLAVMGLTVALGAAALAVVKSALEWAPKFQLQLFP
On to B2, for which the “kinetics of Rab1 GTP hydrolysis (GAP assay)” value in data set [1] is on record as “the GTPase activating activity of TBC1D20 on Rab1 was abolished when these conserved arginine residues were mutated to alanine”.
